Measurements: the Human Domainome abundance scans (Beltran et al. 2025)
± gives the uncertainty stated by the source.

B1: RanBP-type and C3HC4-type zinc finger-containing protein 1, residues 369 to 411; numbered along this chain, Q9BYM8 (parent)
chain: YHCKTPDCKGWCFFEDDVNEFTCPVCFHVNCLLCKAIHEQMNC

Variants of: B1
Experiment: abundance fitness (aPCA) (normalised: wild type 0, dead -1); higher = more abundant; growth selection in yeast, the domain comes from the species named
Details: Homo sapiens

F21D and E20S are within error of each other in abundance fitness: -0.211 ± 0.11 for the first, -0.222 ± 0.063 for the second.

E20I and C8G are within error of each other in abundance fitness: -0.465 ± 0.2 for the first, -0.691 ± 0.045 for the second.

C8T and C8V are within error of each other in abundance fitness: -0.919 ± 0.086 for the first, -0.999 ± 0.1 for the second.

C8A and N30W are within error of each other in abundance fitness: -0.761 ± 0.065 for the first, -0.855 ± 0.083 for the second.

Compared with N30A, N30K is higher in abundance fitness: -1.3 ± 0.14 for the first, -0.781 ± 0.12 for the second.

C43T and C43G are within error of each other in abundance fitness: -0.216 ± 0.089 for the first, -0.29 ± 0.057 for the second.

C43V and C43Q are within error of each other in abundance fitness: -0.396 ± 0.071 for the first, -0.357 ± 0.074 for the second.

C43S and C43P are within error of each other in abundance fitness: -0.312 ± 0.055 for the first, -0.211 ± 0.089 for the second.

Compared with C31L, C31T is higher in abundance fitness: -1.02 ± 0.1 for the first, -0.451 ± 0.057 for the second.

C31F and C31W are within error of each other in abundance fitness: -0.648 ± 0.35 for the first, -0.738 ± 0.09 for the second.

Compared with C31H, H2R is higher in abundance fitness: -0.469 ± 0.085 for the first, 0.035 ± 0.041 for the second.

Compared with H2Q, H2L is lower in abundance fitness: 0.091 ± 0.053 for the first, -0.233 ± 0.056 for the second.

Compared with H2G, C3Q is lower in abundance fitness: -0.568 ± 0.051 for the first, -0.886 ± 0.12 for the second.

First: C3V
Second: C3L
The abundance fitness of the first is lower: -1.32 ± 0.11 for the first, -0.884 ± 0.11 for the second.

C3W and C3G are within error of each other in abundance fitness: -0.879 ± 0.06 for the first, -0.826 ± 0.044 for the second.

First: C3I
Second: C3P
The abundance fitness of the first is higher: -0.593 ± 0.14 for the first, -1.13 ± 0.12 for the second.

C3R and C3T are within error of each other in abundance fitness: -0.906 ± 0.051 for the first, -0.937 ± 0.098 for the second.

First: A36N
Second: A36E
The abundance fitness of the first is lower: -0.111 ± 0.065 for the first, 0.058 ± 0.062 for the second.

Going from A36D to D7Q, the abundance fitness falls from -0.053 ± 0.064 to -0.194 ± 0.065.

Compared with D7P, D7E is higher in abundance fitness: -0.615 ± 0.11 for the first, 0.034 ± 0.054 for the second.

Going from E39S to E39W, the abundance fitness falls from -0.09 ± 0.051 to -0.249 ± 0.06.

E39P and D17Q are within error of each other in abundance fitness: 0.029 ± 0.059 for the first, 0.142 ± 0.064 for the second.

Going from D17A to P24T, the abundance fitness falls from -0.038 ± 0.048 to -0.324 ± 0.06.

Compared with P24D, P24I is lower in abundance fitness: -0.36 ± 0.13 for the first, -1.09 ± 0.22 for the second.

Compared with C34Q, C34W is lower in abundance fitness: -0.494 ± 0.048 for the first, -1.02 ± 0.094 for the second.

Compared with D16Q, D16W is lower in abundance fitness: 0.045 ± 0.059 for the first, -0.349 ± 0.072 for the second.

D16V and D16L are within error of each other in abundance fitness: -0.075 ± 0.049 for the first, -0.166 ± 0.054 for the second.

D16H and D16R are within error of each other in abundance fitness: -0.045 ± 0.14 for the first, 0.044 ± 0.046 for the second.

Compared with D16K, K9N is lower in abundance fitness: 0.146 ± 0.063 for the first, -0.19 ± 0.082 for the second.

Going from K9V to K9Y, the abundance fitness falls from 0.026 ± 0.04 to -0.485 ± 0.19.

Compared with K9S, K9F is lower in abundance fitness: 0.045 ± 0.041 for the first, -0.378 ± 0.093 for the second.

K9P and W11S are within error of each other in abundance fitness: 0.047 ± 0.042 for the first, 0.132 ± 0.047 for the second.

Going from W11G to W11K, the abundance fitness rises from -0.172 ± 0.037 to 0.023 ± 0.05.

W11R and W11L are within error of each other in abundance fitness: 0.036 ± 0.039 for the first, 0.044 ± 0.054 for the second.

W11T and W11N are within error of each other in abundance fitness: 0.176 ± 0.049 for the first, 0.063 ± 0.071 for the second.

First: W11M
Second: G10R
The abundance fitness of the first is higher: 0.191 ± 0.065 for the first, -0.66 ± 0.051 for the second.

G10K and G10F are within error of each other in abundance fitness: -0.621 ± 0.14 for the first, -0.346 ± 0.17 for the second.

First: I37F
Second: I37R
The abundance fitness of the first is lower: -0.412 ± 0.086 for the first, -0.145 ± 0.039 for the second.

First: I37W
Second: I37S
The abundance fitness of the first is lower: -0.39 ± 0.05 for the first, -0.183 ± 0.046 for the second.

I37H and I37C are within error of each other in abundance fitness: -0.218 ± 0.086 for the first, -0.222 ± 0.12 for the second.

Going from I37N to I37Y, the abundance fitness falls from -0.269 ± 0.089 to -0.464 ± 0.064.

I37L and M41Y are within error of each other in abundance fitness: -0.219 ± 0.047 for the first, -0.173 ± 0.13 for the second.

Compared with M41N, M41I is lower in abundance fitness: 0.114 ± 0.062 for the first, -0.112 ± 0.069 for the second.

M41K and M41E are within error of each other in abundance fitness: 0.101 ± 0.052 for the first, 0.135 ± 0.061 for the second.

M41P and M41R are within error of each other in abundance fitness: 0.059 ± 0.052 for the first, 0.128 ± 0.038 for the second.

Compared with F27W, F27I is lower in abundance fitness: -0.147 ± 0.047 for the first, -0.571 ± 0.21 for the second.

Going from C12S to C12L, the abundance fitness falls from 0.252 ± 0.17 to -0.348 ± 0.33.

C12G and C26Y are within error of each other in abundance fitness: -0.274 ± 0.3 for the first, -0.77 ± 0.48 for the second.

C26G and C26I are within error of each other in abundance fitness: -0.757 ± 0.049 for the first, -0.783 ± 0.13 for the second.

C26N and C26R are within error of each other in abundance fitness: -0.708 ± 0.14 for the first, -0.754 ± 0.061 for the second.

V18R and V18I are within error of each other in abundance fitness: 0.069 ± 0.039 for the first, 0.099 ± 0.081 for the second.

First: V18K
Second: V18N
The abundance fitness of the first is higher: -0.001 ± 0.058 for the first, -0.267 ± 0.083 for the second.

V18S and P6Q are within error of each other in abundance fitness: -0.055 ± 0.052 for the first, -0.063 ± 0.046 for the second.

P6D and P6S are within error of each other in abundance fitness: -0.343 ± 0.075 for the first, -0.266 ± 0.069 for the second.

P6H and P6G are within error of each other in abundance fitness: -0.434 ± 0.12 for the first, -0.494 ± 0.044 for the second.

Compared with N19C, N19E is higher in abundance fitness: -0.118 ± 0.047 for the first, 0.042 ± 0.054 for the second.

First: N19H
Second: N19M
The abundance fitness of the first is lower: -0.264 ± 0.11 for the first, -0.078 ± 0.058 for the second.

Going from N19Y to Q40G, the abundance fitness rises from -0.172 ± 0.23 to 0.129 ± 0.038.

L32V and L32Q are within error of each other in abundance fitness: -0.167 ± 0.051 for the first, -0.168 ± 0.065 for the second.

First: L32W
Second: L32R
The abundance fitness of the first is lower: -0.417 ± 0.058 for the first, 0.026 ± 0.039 for the second.

Compared with L32K, L32C is lower in abundance fitness: 0.037 ± 0.051 for the first, -0.27 ± 0.12 for the second.

L32G and T22A are within error of each other in abundance fitness: -0.369 ± 0.045 for the first, -0.296 ± 0.05 for the second.

Going from T22R to T22D, the abundance fitness falls from -0.126 ± 0.041 to -0.343 ± 0.11.

T22E and T22H are within error of each other in abundance fitness: -0.166 ± 0.045 for the first, -0.032 ± 0.38 for the second.

T22P and Y1G are within error of each other in abundance fitness: -0.413 ± 0.17 for the first, -0.331 ± 0.049 for the second.

Y1T and Y1V are within error of each other in abundance fitness: -0.24 ± 0.06 for the first, -0.265 ± 0.06 for the second.

Y1W and Y1S are within error of each other in abundance fitness: -0.437 ± 0.074 for the first, -0.409 ± 0.085 for the second.

First: N42K
Second: N42L
The abundance fitness of the first is higher: -0.064 ± 0.05 for the first, -0.196 ± 0.056 for the second.

N42C and N42A are within error of each other in abundance fitness: -0.005 ± 0.094 for the first, 0.106 ± 0.043 for the second.

First: N42E
Second: N42I
The abundance fitness of the first is higher: 0.075 ± 0.055 for the first, -0.231 ± 0.21 for the second.

First: L33V
Second: L33P
The abundance fitness of the first is lower: -0.072 ± 0.045 for the first, 0.084 ± 0.058 for the second.

Going from L33W to L33T, the abundance fitness rises from -0.262 ± 0.049 to -0.026 ± 0.057.

E15L and E15C are within error of each other in abundance fitness: -0.423 ± 0.087 for the first, -0.32 ± 0.09 for the second.

Going from E15D to F13R, the abundance fitness rises from -0.201 ± 0.16 to 0.092 ± 0.081.

F13T and F13V are within error of each other in abundance fitness: -0.084 ± 0.13 for the first, -0.235 ± 0.094 for the second.

K35M and K35F are within error of each other in abundance fitness: -0.026 ± 0.07 for the first, -0.149 ± 0.059 for the second.

K35P and K35T are within error of each other in abundance fitness: -0.356 ± 0.063 for the first, -0.281 ± 0.042 for the second.

K35H and F14E are within error of each other in abundance fitness: -0.023 ± 0.067 for the first, -0.082 ± 0.082 for the second.

F14W and H28I are within error of each other in abundance fitness: 0.075 ± 0.24 for the first, -0.224 ± 0.16 for the second.

First: H28D
Second: H28K
The abundance fitness of the first is lower: -0.661 ± 0.091 for the first, 0.131 ± 0.054 for the second.

H28M and H28S are within error of each other in abundance fitness: -0.065 ± 0.043 for the first, -0.029 ± 0.048 for the second.

C23W and C23Y are within error of each other in abundance fitness: -0.741 ± 0.1 for the first, -0.677 ± 0.17 for the second.

Going from C23M to C23K, the abundance fitness rises from -0.895 ± 0.088 to -0.529 ± 0.14.

Work on C23Q yielded an abundance fitness of -0.621 ± 0.058.
